Results: PMC3542827

Experiments:
Assay in all cases: EMSA
[1] = tested on: ParB V285A (Pseudomonas aeruginosa (PAO1161?))
[2] = tested on: ParB L286A (Pseudomonas aeruginosa (PAO1161?))
[3] = tested on: ParB (wild type) (Pseudomonas aeruginosa (PAO1161?)); details: EMSA: 5.6 pmol dsDNA with 10, 20, 30, 50 pmol His6-ParB, 37 °C, 15 min; buffer as in Kusiak et al. 2011 (not given); 10% native PAGE in TBE
[4] = tested on: ParB L282A (Pseudomonas aeruginosa (PAO1161?))

parS2/3 (oligos #17/#18)
binding signal (fold affinity vs wild-type ParB) [1]: 0.5 | binding signal (fold affinity vs wild-type ParB) [2]: 2 | binding signal (fold affinity (reference)) [3]: 1 | binding signal (fold affinity vs wild-type ParB) [4]: 0.5
